The source of these data is paper PMC11369088.

The target in this experiment is C-terminal FLAG-tag TEX264 (UniProt Q9Y6I9). Briefly: co-IP; FLAG co-IP of FLAG-tagged ER-phagy receptor from HEK293 Tg-NLuc cells in TNI buffer (50 mM Tris pH 7.5, 150 mM NaCl, 0.5% IGEPAL CA-630), four washes; Tg-NLuc on the resin read by nano-glo luciferase assay; against GFP control.
Chain of UniProt Q9Y6I9 (Q9Y6I9 whole entry): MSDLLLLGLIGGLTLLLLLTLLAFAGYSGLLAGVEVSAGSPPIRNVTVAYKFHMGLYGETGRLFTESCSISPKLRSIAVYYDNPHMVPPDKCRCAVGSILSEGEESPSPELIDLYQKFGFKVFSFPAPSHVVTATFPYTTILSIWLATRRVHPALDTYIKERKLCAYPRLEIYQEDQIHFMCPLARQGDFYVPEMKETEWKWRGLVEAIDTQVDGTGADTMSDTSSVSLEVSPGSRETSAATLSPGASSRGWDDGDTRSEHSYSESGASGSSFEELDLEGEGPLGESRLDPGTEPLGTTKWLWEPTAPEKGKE

On to “nanoluciferase-tagged thyroglobulin C1264R (C1264R Tg-NLuc), P01266 20-2768”, for which the fold interaction against A2234D Tg is 2 fold and the fold interaction against WT Tg turned out to be 3 fold.
